Target: T1, CasEnd-6 (synthetic construct)
T1 chain: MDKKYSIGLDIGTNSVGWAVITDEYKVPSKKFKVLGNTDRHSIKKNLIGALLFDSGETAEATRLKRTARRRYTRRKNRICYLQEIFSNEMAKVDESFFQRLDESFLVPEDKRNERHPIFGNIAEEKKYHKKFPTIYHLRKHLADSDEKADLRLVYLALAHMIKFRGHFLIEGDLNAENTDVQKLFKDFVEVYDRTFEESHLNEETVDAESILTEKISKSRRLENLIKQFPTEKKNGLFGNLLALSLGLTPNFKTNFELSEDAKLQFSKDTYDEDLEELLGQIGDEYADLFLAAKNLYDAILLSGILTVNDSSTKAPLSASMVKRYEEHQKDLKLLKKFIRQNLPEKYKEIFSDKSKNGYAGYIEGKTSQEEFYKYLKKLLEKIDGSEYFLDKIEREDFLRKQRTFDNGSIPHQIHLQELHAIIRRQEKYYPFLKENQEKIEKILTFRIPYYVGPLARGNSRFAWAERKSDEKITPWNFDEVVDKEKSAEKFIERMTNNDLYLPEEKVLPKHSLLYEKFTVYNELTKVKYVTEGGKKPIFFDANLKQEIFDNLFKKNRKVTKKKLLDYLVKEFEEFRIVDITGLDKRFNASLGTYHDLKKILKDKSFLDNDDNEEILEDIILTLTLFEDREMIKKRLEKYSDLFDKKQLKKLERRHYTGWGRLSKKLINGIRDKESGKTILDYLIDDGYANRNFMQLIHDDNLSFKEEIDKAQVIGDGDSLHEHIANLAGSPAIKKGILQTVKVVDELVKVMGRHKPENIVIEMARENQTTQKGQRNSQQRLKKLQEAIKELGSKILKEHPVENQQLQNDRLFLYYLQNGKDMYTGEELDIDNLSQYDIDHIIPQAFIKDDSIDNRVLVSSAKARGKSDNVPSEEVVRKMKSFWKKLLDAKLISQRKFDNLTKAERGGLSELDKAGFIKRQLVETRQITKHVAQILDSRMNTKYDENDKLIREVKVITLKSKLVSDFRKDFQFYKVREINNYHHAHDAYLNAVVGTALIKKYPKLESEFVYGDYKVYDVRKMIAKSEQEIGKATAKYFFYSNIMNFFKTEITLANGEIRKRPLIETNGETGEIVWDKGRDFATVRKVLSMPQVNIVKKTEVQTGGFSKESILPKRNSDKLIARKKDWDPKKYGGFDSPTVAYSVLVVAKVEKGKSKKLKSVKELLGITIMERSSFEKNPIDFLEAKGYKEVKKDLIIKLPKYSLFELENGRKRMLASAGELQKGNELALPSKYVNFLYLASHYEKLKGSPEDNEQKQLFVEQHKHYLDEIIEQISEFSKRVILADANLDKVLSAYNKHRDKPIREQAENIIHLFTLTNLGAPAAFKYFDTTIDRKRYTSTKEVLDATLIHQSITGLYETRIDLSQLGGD
Assay: cell_activity; +++; HEK293T; PAM not stated
Procedure, shortened: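 BFP-to-GFP conversion via reverse transcriptase fusion with each Cas endonuclease plus template RNA: 200 ng of each plasmid nucleofected into 250,000 BFP-expressing HEK293T cells (program DS-150). Percent GFP+ cells by flow cytometry at day 4 measured editing.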

B1: BFP-to-GFP template RNA ; BFP reporter protospacer (ssRNA ; dsDNA)
RNA: GCCGAAGCACUGCACGCCGUGUUUUAGAGCUAGAAAUAGCAAGUUAAAAUAAGGCUAGUCCGUUAUCAACUUGAAAAAGUGGCACCGAGUCGGUGCACCCUGACGUACGGCGUGCAGUGCUU
DNA 1: GCCGAAGCACTGCACGCCGT
DNA 2: ACGGCGTGCAGTGCTTCGGC
For B1, the activity was ≥ 100 % of reference.

Source: patent US20250092426, “CAS ENDONUCLEASES AND RELATED METHODS” (Flagship Pioneering Innovations VII, LLC, published 2025)
